From paper PMC10786891, “Massively parallel profiling of RNA-targeting CRISPR-Cas13d”
Changes are numbered by the printed parent chain. Names may count otherwise.

T1: EsCas13d, nuclease-dead (Eubacterium siraeum, UniProt B0MS50, R295A;H300A;R849A;H854A)
T1 sequence: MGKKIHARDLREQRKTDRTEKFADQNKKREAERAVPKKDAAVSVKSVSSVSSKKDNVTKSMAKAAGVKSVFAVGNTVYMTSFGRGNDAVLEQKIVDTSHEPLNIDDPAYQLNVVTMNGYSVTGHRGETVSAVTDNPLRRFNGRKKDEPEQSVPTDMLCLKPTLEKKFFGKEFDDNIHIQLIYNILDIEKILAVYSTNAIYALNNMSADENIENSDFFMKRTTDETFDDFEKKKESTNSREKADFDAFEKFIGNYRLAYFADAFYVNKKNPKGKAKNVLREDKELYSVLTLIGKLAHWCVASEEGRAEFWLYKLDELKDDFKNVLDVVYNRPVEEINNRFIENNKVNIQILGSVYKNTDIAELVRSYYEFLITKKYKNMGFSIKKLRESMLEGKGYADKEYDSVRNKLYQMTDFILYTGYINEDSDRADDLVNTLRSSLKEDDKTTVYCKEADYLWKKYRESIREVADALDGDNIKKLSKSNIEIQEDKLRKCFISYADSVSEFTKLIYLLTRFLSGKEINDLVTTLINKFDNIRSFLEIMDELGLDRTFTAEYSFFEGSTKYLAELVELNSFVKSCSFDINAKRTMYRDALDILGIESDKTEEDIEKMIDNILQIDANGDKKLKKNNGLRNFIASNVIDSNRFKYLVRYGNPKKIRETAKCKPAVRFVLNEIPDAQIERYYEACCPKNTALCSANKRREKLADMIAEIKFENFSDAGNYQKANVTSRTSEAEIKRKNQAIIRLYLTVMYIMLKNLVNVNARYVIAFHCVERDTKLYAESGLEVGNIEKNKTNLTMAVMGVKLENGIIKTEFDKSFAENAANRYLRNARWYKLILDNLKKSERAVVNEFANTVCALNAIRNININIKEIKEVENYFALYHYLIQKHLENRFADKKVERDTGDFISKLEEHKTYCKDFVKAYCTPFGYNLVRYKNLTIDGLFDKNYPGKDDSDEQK

B1: target 1 U10A,U11C (mixed)
RNA 1: CACCCGUGCAAAAAUGCAGGGGUCUAAAACUGAGCGGAUAACCUCUCUAUGG
RNA 2: GGGAAUGGAUCCACAUCUACGAAUUCGUACCAUAGAGAGGCAAUCCGCUCACCGAGAUCGGAAGAGCACACGU
B2: target 1 insA 3' of 19,insG 3' of 2 (mixed)
RNA 1: B1 RNA 1
RNA 2: GGGAAUGGAUCCACAUCUACGAAUUCGUACCAUAAGAGAGGUUAUCCGCUCGACCGAGAUCGGAAGAGCACACGU
B3: target 1 insU 3' of 22,insU 3' of 22 (mixed)
RNA 1: B1 RNA 1
RNA 2: GGGAAUGGAUCCACAUCUACGAAUUCGUACUUCAUAGAGAGGUUAUCCGCUCACCGAGAUCGGAAGAGCACACGU
B4: target 1 insG 3' of 9,insA 3' of 2 (mixed)
RNA 1: B1 RNA 1
RNA 2: B2 RNA 2 with A35G, G36A, A37G, G38A, A39G, G41U, U43A, A44G, G52A
B5: target 1 insU 3' of 22,insA 3' of 3 (mixed)
RNA 1: B1 RNA 1
RNA 2: B2 RNA 2 with C31U, A32C, U33A, A34U, C51A, G52C
B6: target 1 insC 3' of 11,insU 3' of 4 (mixed)
RNA 1: B1 RNA 1
RNA 2: B2 RNA 2 with A35G, G36A, A37G, G38A, A39G, G41U, U42C, C51U, G52C
B7: target 1 U3C,U10A (mixed)
RNA 1: B1 RNA 1
RNA 2: B1 RNA 2 with C41U, U49C
B8: target 1 insC 3' of 15,insU 3' of 5 (mixed)
RNA 1: B1 RNA 1
RNA 2: B2 RNA 2 with A35G, G36A, A37G, G38C, C49U, U50C, C51U, G52C
B9: target 1 A1U,U8G (mixed)
RNA 1: B1 RNA 1
RNA 2: B1 RNA 2 with C41U, A42U, U44G, A51U
B10: target 1 del14,del20 (mixed)
RNA 1: B1 RNA 1
RNA 2: GGGAAUGGAUCCACAUCUACGAAUUCGUACCUAGAGGGUUAUCCGCUCACCGAGAUCGGAAGAGCACACGU
B11: target 1 insC 3' of 10,insG 3' of 3 (mixed)
RNA 1: B1 RNA 1
RNA 2: B2 RNA 2 with A35G, G36A, A37G, G38A, A39G, G41U, U43C, C51G, G52C
B12: target 1 insA 3' of 13,insA 3' of 2 (mixed)
RNA 1: B1 RNA 1
RNA 2: B2 RNA 2 with A35G, G36A, A37G, G38A, A39G, G40A, G52A
B13: target 1 G15A,A16U (mixed)
RNA 1: B1 RNA 1
RNA 2: B1 RNA 2 with A36U, G37A, C41U, A42U
B14: target 1 U19A,C22A (mixed)
RNA 1: B1 RNA 1
RNA 2: B1 RNA 2 with C30A, U33A, C41U, A42U
B15: target 1 U8G (mixed)
RNA 1: B1 RNA 1
RNA 2: B1 RNA 2 with C41U, A42U, U44G
B16: target 1 G17U,C22U (mixed)
RNA 1: B1 RNA 1
RNA 2: B1 RNA 2 with C30U, G35U, C41U, A42U
B17: target 1 U10C,G13A (mixed)
RNA 1: B1 RNA 1
RNA 2: B1 RNA 2 with G39A, C41U, A42C
B18: target 1 insC 3' of 19,insA 3' of 10 (mixed)
RNA 1: B1 RNA 1
RNA 2: B2 RNA 2 with A34C, U45A, C46U, G48C, C49G, U50C, C51U, G52C
B19: target 1 G12U,G17A (mixed)
RNA 1: B1 RNA 1
RNA 2: B1 RNA 2 with G35A, G40U, C41U, A42U
B20: target 1 A16G,G17C (mixed)
RNA 1: B1 RNA 1
RNA 2: B1 RNA 2 with G35C, A36G, C41U, A42U
B21: target 1 C2U,G5C (mixed)
RNA 1: B1 RNA 1
RNA 2: B1 RNA 2 with C41U, A42U, G47C, C50U
B22: target 1 U3A,A14G (mixed)
RNA 1: B1 RNA 1
RNA 2: B1 RNA 2 with A38G, C41U, A42U, U49A
B23: target 1 insU 3' of 13,insA 3' of 12 (mixed)
RNA 1: B1 RNA 1
RNA 2: B3 RNA 2 with U31C, U32A, C33U, U35G, A40U, G42A
B24: target 1 insG 3' of 8,insC 3' of 5 (mixed)
RNA 1: B1 RNA 1
RNA 2: GGGAAUGGAUCCACAUCUACGAAUUCGUACCAUAGAGAGGUUAUGCCGCCUCACCGAGAUCGGAAGAGCACACGU
B25: target 1 insU 3' of 7,insU 3' of 1 (mixed)
RNA 1: B1 RNA 1
RNA 2: B24 RNA 2 with G45C, C46U, C50U, U51C, C52A, A53U
B26: target 1 insG 3' of 22,insU 3' of 18 (mixed)
RNA 1: B1 RNA 1
RNA 2: B3 RNA 2 with U31G, U32C, C33A, A34U, U35A, A36U
B27: target 1 C4G,U10G (mixed)
RNA 1: B1 RNA 1
RNA 2: B1 RNA 2 with C41U, A42G, C48G
B28: target 1 insU 3' of 13,insA 3' of 5 (mixed)
RNA 1: B1 RNA 1
RNA 2: B24 RNA 2 with G40U, U41G, A43U, U44A, G45U, C49A
B29: target 1 insG 3' of 22,insC 3' of 20 (mixed)
RNA 1: B1 RNA 1
RNA 2: B3 RNA 2 with U31G, U32C, C33A, A34C
B30: target 1 C7G,G12U (mixed)
RNA 1: B1 RNA 1
RNA 2: B1 RNA 2 with G40U, C41U, A42U, C45G
B31: target 1 C4U,C6A (mixed)
RNA 1: B1 RNA 1
RNA 2: B1 RNA 2 with C41U, A42U, C46A, C48U
B32: target 1 U3C,A9G (mixed)
RNA 1: B1 RNA 1
RNA 2: B1 RNA 2 with C41U, A42U, A43G, U49C
B33: target 1 U3A,A9U (mixed)
RNA 1: B1 RNA 1
RNA 2: B1 RNA 2 with C41U, A42U, A43U, U49A
B34: target 1 insG 3' of 10,insG 3' of 7 (mixed)
RNA 1: B1 RNA 1
RNA 2: B24 RNA 2 with A43G, U44A, G45U, C47G, G48C, C49G

target: T1, EsCas13d, nuclease-dead; assay: crRNA (strand 1, pre-loaded); Mg2+; 40 mM Tris-HCl pH 7.5, 150 mM NaCl, 6 mM MgCl2, 1 mM DTT, 0.1% Tween-20, 0.2 mg/ml BSA; 25 C; 10 min per concentration, then washed; details: tags: His6-TwinStrep-SUMO cleaved; N-terminal SNAP kept (SNAP-Surface 488); label: 3' end held by stalled T7 RNA polymerase

**Q.** For B1, which Kd is on record?
**A.** 9.96 ± 0.33 nM

**Q.** Which Kd does the source give for B2 here?
**A.** 19.5 ± 1.3 nM

**Q.** With B3 as the binder, how does the Kd read?
**A.** 31 ± 8 nM

**Q.** B4 was tested. Which Kd did it give?
**A.** 21.2 ± 2.5 nM

**Q.** With B5 as the binder, how does the Kd read?
**A.** 31.5 ± 2.8 nM

**Q.** With B6 as the binder, how does the Kd read?
**A.** 23.2 ± 1.8 nM

**Q.** How did the Kd turn out when B7 was run?
**A.** 90 ± 40 nM

**Q.** Which Kd does the source give for B8 here?
**A.** 16.6 ± 1.8 nM

**Q.** With B9 as the binder, how does the Kd read?
**A.** 24.6 ± 1 nM

**Q.** How did the Kd turn out when B10 was run?
**A.** 72 ± 25 nM

**Q.** With B11 as the binder, how does the Kd read?
**A.** 9.5 ± 0.5 nM

**Q.** B12 was tested. Which Kd did it give?
**A.** 3.1 ± 0.28 nM

**Q.** With B13 as the binder, how does the Kd read?
**A.** 24.3 ± 2.3 nM

**Q.** B14 was tested. Which Kd did it give?
**A.** 56 ± 7 nM

**Q.** How did the Kd turn out when B15 was run?
**A.** 19.2 ± 0.9 nM

**Q.** With B16 as the binder, how does the Kd read?
**A.** 32.4 ± 2.8 nM

**Q.** B17 was tested. Which Kd did it give?
**A.** 13.6 ± 1 nM

**Q.** With B18 as the binder, how does the Kd read?
**A.** 57 ± 5 nM

**Q.** With B19 as the binder, how does the Kd read?
**A.** 59 ± 8 nM

**Q.** With B20 as the binder, how does the Kd read?
**A.** 76 ± 10 nM

**Q.** How did the Kd turn out when B21 was run?
**A.** 12.4 ± 0.8 nM

**Q.** B22 was tested. Which Kd did it give?
**A.** 14.3 ± 1.2 nM

**Q.** B23 was tested. Which Kd did it give?
**A.** 10.1 ± 0.7 nM

**Q.** With B24 as the binder, how does the Kd read?
**A.** 10.2 ± 0.4 nM

**Q.** B25 was tested. Which Kd did it give?
**A.** 18.4 ± 0.9 nM

**Q.** How did the Kd turn out when B26 was run?
**A.** 74 ± 18 nM

**Q.** With B27 as the binder, how does the Kd read?
**A.** 13.6 ± 0.5 nM

**Q.** B28 was tested. Which Kd did it give?
**A.** 15.7 ± 2.7 nM

**Q.** With B29 as the binder, how does the Kd read?
**A.** 8.4 ± 0.7 nM

**Q.** How did the Kd turn out when B30 was run?
**A.** 14.3 ± 1.1 nM

**Q.** B31 was tested. Which Kd did it give?
**A.** 7.52 ± 0.33 nM

**Q.** How did the Kd turn out when B32 was run?
**A.** 30.5 ± 3.2 nM

**Q.** B33 was tested. Which Kd did it give?
**A.** 10.8 ± 0.9 nM

**Q.** B34 was tested. Which Kd did it give?
**A.** 12.5 ± 0.6 nM
